Measured values published in patent US7125697B2, “Luciferase and photoprotein” (Chisso Corporation, priority 2000, dated 2006).

Columns and labels:
[1] = Luminescence activity after expression in COS7 cells, coelenterazine substrate; format: cell-based; details: for Luminescence activity in Cell extracts, Coelenterazine: COS7 cell extracts; for Luminescence activity in Medium, Coelenterazine: COS7 culture medium
Description: (§1) Expression of the proteins as a component of Oplophorus luciferase in mammalian cultured cells COS7 was conducted using the expression plasmids pKAZ-CMV, PSKAZ-CMV, pOL-CMV and pSOL-CMV constructed in Example 10 and pRL-CMV expressing Renilla luciferase as a control for the transfection of the host. COS7 cells (2×10^5 cells) were grown in a 35 mm well-plate containing 3 ml of Dulbecco's modified Eagle's media (Gibco BRL, Rockville, Md., USA) supplemented with 10% (v/v) heat-inactivated fetal calf serum (Gibco BRL), 100 U/ml penicillin and 100 μg/ml of streptomycin. The cells were cultured at 37° C. for 24 hours and then transfected with 2 μg of each plasmid DNA using FuGENE6 transfection reagent (Rosche Diagnostics, Mannheim, Germany). After further incubation for 36 hours, cells were separated from cultured media by centrifugation. The separated cells were suspended in 0.5 ml of phosphate-buffered saline, and subjected to repeated freeze-thawing at a temperature between 37° C. and −80° C. to obtain a cell extract. One μg of coelenterazine or bisdeoxy-coelenterazine was added as a substrate into the cell extract and the intensity of the luminescence was measured by the luminometer.

[2] = Luminescence activity after expression in COS7 cells, bisdeoxy-coelenterazine substrate; format: cell-based
Description: as §1

[3] = Luminescence activity of proteins expressed in cell-free in vitro transcription-translation system; format: biochemical; details: no microsomal membrane (−); 1 μg coelenterazine
Text: Using the expression vector, pKAZ-CMV, PSKAZ-CMV, pOL-CMV or pSOL-CMV prepared in Example 10, the 19 kDa or 35 kDa protein constituting Oplophorus luciferase was expressed by means of the in vitro transcription-translation system. As a positive control, pRL-CMV expressing Renilla luciferase was used. The in vitro transcription-translation system is capable of producing a protein from a recombinant plasmid or mRNA prepared from the plasmid and is particularly useful for the luminescence system with high sensitivity for the detection. In this Example, a commercially available in vitro translation kit (TNT in vitro transcription/translation kit; Promega) was used. A fraction of microsomal membranes capable of cleaving the signal sequence for secretion was also added in order to confirm the existence of the signal sequence in the expressed proteins. The in vitro translation mixture (25 μl in total) containing 0.5 μg of the plasmid DNA, 20 μl of rabbit reticulocyte lysate, 1 μl of 1 mM methionine and 2.5 μl of microsomal membranes was incubated at 30° C. for 90 min and then 1 μl of the mixture was subjected to the measurement of its luminescent activity. […] The reaction was started by the addition of a test sample and the intensity of the luminescence was measured by the luminometer.

[4] = Renaturation of urea-solubilized 19 kDa protein with glycerol, luminescence activity; format: biochemical; details: for Luminescence Activity: 25° C., 30 minutes; for Luminescence Activity, relative value in parentheses: relative to 0 % glycerol
Description: E. coli cells constructed in Example 12 which contain the expression vector pHis-KAZ and express the 19 kDa protein were disrupted by the sonication in 20 ml of a buffer comprising 20 mM Tris-HCl, pH 7.5. After centrifugation (12,000×g, 20 minutes), the precipitated fraction was subjected to the solubilization by treating with 20 ml of 20, mM Tris-HCl, pH 7.5 containing 8 M urea and then centrifuged (12,000×g, 20 minutes) to afford a soluble fraction. […] Subsequently, the soluble fraction was subjected to the nickel-chelated column chromatography and the desired protein was eluted by the linear gradient of imidazole from 0 to 0.3 M to give approximately 95% purity.
Consequently, the protein was subjected to the renaturation step by treating with glycerol (the final concentration: from 0 to 90% (v/w)) as a solvent at 25° C. for 30 minutes to afford the 19 kDa protein renatured. As described above, the intensity of the luminescence was measured by the luminometer.

[5] = Preservation test of renatured 19 kDa protein, luminescence activity; format: biochemical; details: for luminescence activity on preservation: 4° C.; for Luminescence activity after preservation: 4 ° C.
Description: Subsequently, the 19 kDa protein renatured was subjected to the preservation test, which comprises preserving the protein in the absence or presence of 50% (v/w) or 70% (v/w) glycerol at 4° C. for 30 days and then measuring its luminescence activity as mentioned above.

B1: 35 kDa Protein: 35 kDa protein component of Oplophorus luciferase, positions 40–359 of SEQ ID NO: 4, without signal sequence (protein, listed as Oplophorus gracilorostris)
chain: AVACPAAEDIAPCTCKVGEGDVMDMDCSKVTSDAELASIFSKTFPSNTFRELFIEFNREITTLTADSLGAATFTKIAITSCTQLKTIEENAFMASAATLEKLVLLKNDLSSFPFEEMSQYTKLNWLELSVNSITGWPALSSDTLANLILFRNPIGNIPVDAFQTLPNIEQFNCFDCSITEVEAGTFTRSPKLQKLVLGYNGLTSLPVGAIKLHGHGPTTSNLGITNNQIISFPEGAVEGIQGILGIDFNRVTSLSEEVWRPILENLFQFSLLNNPLACVCDVMWLIDSPELLAKIKGNPRCAGGKRLKNLDPAVFHAMCQ
Luminescence activity in Cell extracts, Coelenterazine [1]: <0.001 rlu
Luminescence activity in Medium, Coelenterazine [1]: 2.45 rlu
Luminescence activity in Cell extracts, Bisdeoxy-coelenterazine [2]: <0.001 rlu
Luminescence Activity [3]: <0.001 rlu

B2: 19 kDa Protein: 19 kDa photoprotein component of Oplophorus luciferase, positions 28–196 of SEQ ID NO: 2, without signal sequence (protein, listed as Oplophorus gracilorostris)
chain: FTLADFVGDWQQTAGYNQDQVLEQGGLSSLFQALGVSVTPIQKVVLSGENGLKADIHVIIPYEGLSGFQMGLIEMIFKVVYPVDDHHFKIILHYGTLVIDGVTPNMIDYFGRPYPGIAVFDGKQITVTGTLWNGNKIYDERLINPDGSLLFRVTINGVTGWRLCENILA
Luminescence activity in Cell extracts, Coelenterazine [1]: 2,273.0 rlu
luminescent intensity compared with pRL-CMV ([1]; COS7 cells): equivalent to that from pRL-CMV
Luminescence activity in Medium, Coelenterazine [1]: 3.62 rlu
Luminescence activity in Cell extracts, Bisdeoxy-coelenterazine [2]: 2,124.0 rlu
Luminescence Activity [3]: 1242.0 rlu
luminescence activity before renaturation ([4]; after 8 M urea solubilization and nickel-chelated column, before glycerol): no luminescence activity
Luminescence Activity ([4]; glycerol 0 % v/w): 83 rlu
Luminescence Activity, relative value in parentheses ([4]; glycerol 0 % v/w): (1.0)
Luminescence Activity ([4]; glycerol 10 % v/w): 147 rlu
Luminescence Activity, relative value in parentheses ([4]; glycerol 10 % v/w): (1.8)
Luminescence Activity ([4]; glycerol 20 % v/w): 375 rlu
Luminescence Activity, relative value in parentheses ([4]; glycerol 20 % v/w): (4.5)
Luminescence Activity ([4]; glycerol 30 % v/w): 1,258 rlu
Luminescence Activity, relative value in parentheses ([4]; glycerol 30 % v/w): (15.2)
Luminescence Activity ([4]; glycerol 40 % v/w): 1,818 rlu
Luminescence Activity, relative value in parentheses ([4]; glycerol 40 % v/w): (24.9)
Luminescence Activity ([4]; glycerol 50 % v/w): 3,822 rlu
Luminescence Activity, relative value in parentheses ([4]; glycerol 50 % v/w): (46.0)
Luminescence Activity ([4]; glycerol 60 % v/w): 4,860 rlu
Luminescence Activity, relative value in parentheses ([4]; glycerol 60 % v/w): (58.6)
Luminescence Activity ([4]; glycerol 70 % v/w): 4,462 rlu
Luminescence Activity, relative value in parentheses ([4]; glycerol 70 % v/w): (53.8)
Luminescence Activity ([4]; glycerol 80 % v/w): 2,842 rlu
Luminescence Activity, relative value in parentheses ([4]; glycerol 80 % v/w): (34.2)
Luminescence Activity ([4]; glycerol 90 % v/w): 2,536 rlu
Luminescence Activity, relative value in parentheses ([4]; glycerol 90 % v/w): (30.6)
luminescence activity on preservation ([5]; absence of glycerol, 30 days): significantly decreased
Luminescence activity after preservation ([5]; glycerol 0 % v/w, 0 day): 102 rlu
Luminescence activity after preservation ([5]; glycerol 0 % v/w, 30 days): 23 rlu
Luminescence activity after preservation ([5]; glycerol 50 % v/w, 0 day): 3,840 rlu
Luminescence activity after preservation ([5]; glycerol 50 % v/w, 30 days): 3,734 rlu
luminescence activity on preservation ([5]; presence of glycerol (50% or 70% v/w), 30 days): maintained without decreasing
